In PMC8379176 (Nature Communications, 2021):

How the values were obtained:
Experiment in all cases: AlphaScreen or HTRF; saturation binding on HEK293 cells transfected with SNAP-ghrelin receptor (WT or mutants) labelled with SNAP-Lumi4-Tb; increasing concentrations of ghrelin-A2 in the presence or absence of 10 uM unlabeled ghrelin, 1 h at R.T.; HTRF ratio 665 nm/620 nm; one Kd for each of three experiments
[1] = target: N-terminal-SNAP-tagged ghrelin receptor F312A (human) (UniProt Q92847)
[2] = target: N-terminal-SNAP-tagged ghrelin receptor Q302A (human) (UniProt Q92847)
[3] = target: N-terminal-SNAP-tagged ghrelin receptor, wild type (human) (UniProt Q92847)

Q: For “ghrelin-A2 (full-length ghrelin labeled with the dye A2 on an additional cysteine at the C-terminal end) (peptide)”, which Kd [1] is on record?
A: 78 nM

Q: What about the Kd [2] of the same substance?
A: > 500 nM

Q: And the Kd [3]?
A: 11 nM
